# Numbering of substitutions follows the chain as printed. In names and notes the source's numbering stands.
# B1: DF1.1 variant HCDR3-E5A (antibody, V domains shown)
# VH: QVQLVQSGAEVKKPGSSVKVSCKTSGGTFNNVAINWVRQAPGQGLEWMGGIIPGLDTPNYAQKFQGRVTITADKSTTSTYLELSSLRSDDTAVYYCAREMAVSGRWRPTEAFEIWGQGTMVTVSS
# VL: ETTLTQSPGTLSLSPGERATLSCRASQTISNNFVAWYQQKPGQAPRLLIYGASTRATGIPDRFSGSGSGTDFTLTISSLEPEDFAVYYCQQYGSSPYTFGQGTKVDIK
# B2: DF1.1 variant LCDR3-P7A (antibody, V domains shown)
# VH: B1 VH with A101E
# VL: B1 VL with P96A
# B3: DF1.1 variant HCDR3-R11A (antibody, V domains shown)
# VH: B1 VH with A101E, R107A
# VL: B1 VL
# B4: DF1.1 variant HCDR3-S7R (antibody, V domains shown)
# VH: B1 VH with A101E, S103R
# VL: B1 VL
# B5: DF1.1 variant LCDR3-G4R (antibody, V domains shown)
# VH: B1 VH with A101E
# VL: B1 VL with G93R
# B6: DF1.1 variant LCDR3-Q1A (antibody, V domains shown)
# VH: B1 VH with A101E
# VL: B1 VL with Q90A
# B7: DF1.1 variant LCDR3-T9R (antibody, V domains shown)
# VH: B1 VH with A101E
# VL: B1 VL with T98R
# B8: DF1.1 variant HCDR3-G8R (antibody, V domains shown)
# VH: B1 VH with A101E, G104R
# VL: B1 VL
# B9: DF1.1 variant HCDR3-R9A (antibody, V domains shown)
# VH: B1 VH with A101E, R105A
# VL: B1 VL
# B10: DF1.1 variant HCDR3-P12A/LCDR3-S6R (antibody, V domains shown)
# VH: B1 VH with A101E, P108A
# VL: B1 VL with S95R
# B11: DF1.1 variant HCDR3-P12A/LCDR3-Y3A (antibody, V domains shown)
# VH: B1 VH with A101E, P108A
# VL: B1 VL with Y92A
# B12: DF1.1 variant HCDR3-A15R/LCDR3-Y3A (antibody, V domains shown)
# VH: B1 VH with A101E, A111R
# VL: B1 VL with Y92A
# B13: DF1.1 variant HCDR3-W10A/LCDR3-Y3A (antibody, V domains shown)
# VH: B1 VH with A101E, W106A
# VL: B1 VL with Y92A
# B14: DF1.1 variant HCDR3-P12A/LCDR3-Y8A (antibody, V domains shown)
# VH: B1 VH with A101E, P108A
# VL: B1 VL with Y97A
# B15: DF1.1 variant HCDR3-W10A/LCDR3-Y8A (antibody, V domains shown)
# VH: B1 VH with A101E, W106A
# VL: B1 VL with Y97A
# Target: T1, S. aureus alpha-toxin (Staphylococcus aureus, UniProt P09616)
row,Binder,Kd
1,B1,400 pM
2,B2,< 140 pM
3,B3,800 pM
4,B4,300 pM
5,B5,< 140 pM
6,B6,< 140 pM
7,B7,< 140 pM
8,B8,400 pM
9,B9,400 pM

# Target: T1, S. aureus alpha-toxin
# Remark: another data set of the same source
row,Binder,Kd
1,B10,330000 pM
2,B11,190000 pM
3,B12,280000 pM
4,B13,440000 pM
5,B14,37000 pM
6,B15,440000 pM

# — patent publication US20130164308A1 (RINAT NEUROSCIENCE, published 2013)
